Measurements taken from paper PMC2362091, “Expression of V1A and GRP receptors leads to cellular transformation and increased sensitivity to substance-P analogue-induced growth inhibition” (British Journal of Cancer, 2005).

Biological target: arginine vasopressin (AVP) (Homo sapiens), P01185
Experiment: competition

arginine vasopressin (AVP) (Homo sapiens), P01185, sequence (P01185 whole entry, looked up): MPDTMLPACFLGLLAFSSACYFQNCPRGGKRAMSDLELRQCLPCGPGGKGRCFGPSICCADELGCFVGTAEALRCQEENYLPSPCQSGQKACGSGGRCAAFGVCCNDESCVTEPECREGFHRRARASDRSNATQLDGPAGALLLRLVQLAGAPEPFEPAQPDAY

Kd: 2.98 nM
B1: V1A receptor, P37288 (protein)
chain: MRLSAGPDAGPSGNSSPWWPLATGAGNTSREAEALGEGNGPPRDVRNEELAKLEIAVLAVTFAVAVLGNSSVLLALHRTPRKTSRMHLFIRHLSLADLAVAFFQVLPQMCWDITYRFRGPDWLCRVVKHLQVFGMFASAYMLVVMTADRYIAVCHPLKTLQQPARRSRLMIAAAWVLSFVLSTPQYFVFSMIEVNNVTKARDCWATFIQPWGSRAYVTWMTGGIFVAPVVILGTCYGFICYNIWCNVRGKTASRQSKGAEQAGVAFQKGFLLAPCVSSVKSISRAKIRTVKMTFVIVTAYIVCWAPFFIIQMWSVWDPMSVWTESENPTITITALLGSLNSCCNPWIYMFFSGHLLQDCVQSFPCCQNMKEKFNKEDTDSMSRRQTFYSNNRSPTNSTGMWKDSPKSSKSIKFIPVST
